Consider 27 molecules from PMC10786891, “Massively parallel profiling of RNA-targeting CRISPR-Cas13d”.

B1: target 1 MT 5'PFS UUA 3'PFS CUA (mixed)
RNA 1: CACCCGUGCAAAAAUGCAGGGGUCUAAAACUGAGCGGAUAACCUCUCUAUGG
RNA 2: GGGAAUGGAUCCACAUCUACGAAUUCUUACCAUAGAGAGGUUAUCCGCUCACUAAGAUCGGAAGAGCACACGU
B2: target 1 MT 5'PFS GGC 3'PFS CCU (mixed)
RNA 1: CACCCGUGCAAAAAUGCAGGGGUCUAAAACUGAGCGGAUAACCUCUCUAUGG
RNA 2: GGGAAUGGAUCCACAUCUACGAAUUCGGCCCAUAGAGAGGUUAUCCGCUCACCUAGAUCGGAAGAGCACACGU
B3: target 1 MT 5'PFS GUC 3'PFS AGU (mixed)
RNA 1: CACCCGUGCAAAAAUGCAGGGGUCUAAAACUGAGCGGAUAACCUCUCUAUGG
RNA 2: GGGAAUGGAUCCACAUCUACGAAUUCGUCCCAUAGAGAGGUUAUCCGCUCAAGUAGAUCGGAAGAGCACACGU
B4: target 1 MT 5'PFS GCG 3'PFS AAU (mixed)
RNA 1: CACCCGUGCAAAAAUGCAGGGGUCUAAAACUGAGCGGAUAACCUCUCUAUGG
RNA 2: GGGAAUGGAUCCACAUCUACGAAUUCGCGCCAUAGAGAGGUUAUCCGCUCAAAUAGAUCGGAAGAGCACACGU
B5: target 1 MT 5'PFS GCG 3'PFS CCU (mixed)
RNA 1: CACCCGUGCAAAAAUGCAGGGGUCUAAAACUGAGCGGAUAACCUCUCUAUGG
RNA 2: GGGAAUGGAUCCACAUCUACGAAUUCGCGCCAUAGAGAGGUUAUCCGCUCACCUAGAUCGGAAGAGCACACGU
B6: target 1 MT 5'PFS GUA 3'PFS UUG (mixed)
RNA 1: CACCCGUGCAAAAAUGCAGGGGUCUAAAACUGAGCGGAUAACCUCUCUAUGG
RNA 2: GGGAAUGGAUCCACAUCUACGAAUUCGUACCAUAGAGAGGUUAUCCGCUCAUUGAGAUCGGAAGAGCACACGU
B7: target 1 MT 5'PFS GCG 3'PFS AAC (mixed)
RNA 1: CACCCGUGCAAAAAUGCAGGGGUCUAAAACUGAGCGGAUAACCUCUCUAUGG
RNA 2: GGGAAUGGAUCCACAUCUACGAAUUCGCGCCAUAGAGAGGUUAUCCGCUCAAACAGAUCGGAAGAGCACACGU
B8: target 1 MT 5'PFS GUA 3'PFS UUU (mixed)
RNA 1: CACCCGUGCAAAAAUGCAGGGGUCUAAAACUGAGCGGAUAACCUCUCUAUGG
RNA 2: GGGAAUGGAUCCACAUCUACGAAUUCGUACCAUAGAGAGGUUAUCCGCUCAUUUAGAUCGGAAGAGCACACGU
B9: target 1 MT 5'PFS GUU 3'PFS ACU (mixed)
RNA 1: CACCCGUGCAAAAAUGCAGGGGUCUAAAACUGAGCGGAUAACCUCUCUAUGG
RNA 2: GGGAAUGGAUCCACAUCUACGAAUUCGUUCCAUAGAGAGGUUAUCCGCUCAACUAGAUCGGAAGAGCACACGU
B10: target 1 MT 5'PFS GUC 3'PFS CAU (mixed)
RNA 1: CACCCGUGCAAAAAUGCAGGGGUCUAAAACUGAGCGGAUAACCUCUCUAUGG
RNA 2: GGGAAUGGAUCCACAUCUACGAAUUCGUCCCAUAGAGAGGUUAUCCGCUCACAUAGAUCGGAAGAGCACACGU
B11: target 1 MT 5'PFS GUC 3'PFS AGG (mixed)
RNA 1: CACCCGUGCAAAAAUGCAGGGGUCUAAAACUGAGCGGAUAACCUCUCUAUGG
RNA 2: GGGAAUGGAUCCACAUCUACGAAUUCGUCCCAUAGAGAGGUUAUCCGCUCAAGGAGAUCGGAAGAGCACACGU
B12: target 1 MT 5'PFS GCG 3'PFS AAA (mixed)
RNA 1: CACCCGUGCAAAAAUGCAGGGGUCUAAAACUGAGCGGAUAACCUCUCUAUGG
RNA 2: GGGAAUGGAUCCACAUCUACGAAUUCGCGCCAUAGAGAGGUUAUCCGCUCAAAAAGAUCGGAAGAGCACACGU
B13: target 1 MT 5'PFS GCG 3'PFS AAG (mixed)
RNA 1: CACCCGUGCAAAAAUGCAGGGGUCUAAAACUGAGCGGAUAACCUCUCUAUGG
RNA 2: GGGAAUGGAUCCACAUCUACGAAUUCGCGCCAUAGAGAGGUUAUCCGCUCAAAGAGAUCGGAAGAGCACACGU
B14: target 1 MT 5'PFS GGG 3'PFS ACU (mixed)
RNA 1: CACCCGUGCAAAAAUGCAGGGGUCUAAAACUGAGCGGAUAACCUCUCUAUGG
RNA 2: GGGAAUGGAUCCACAUCUACGAAUUCGGGCCAUAGAGAGGUUAUCCGCUCAACUAGAUCGGAAGAGCACACGU
B15: target 1 insA 3' of 8,insA 3' of 6 (mixed)
RNA 1: CACCCGUGCAAAAAUGCAGGGGUCUAAAACUGAGCGGAUAACCUCUCUAUGG
RNA 2: GGGAAUGGAUCCACAUCUACGAAUUCGUACCAUAGAGAGGUUAUACCAGCUCACCGAGAUCGGAAGAGCACACGU
B16: target 1 MT 5'PFS GUC 3'PFS CAG (mixed)
RNA 1: CACCCGUGCAAAAAUGCAGGGGUCUAAAACUGAGCGGAUAACCUCUCUAUGG
RNA 2: GGGAAUGGAUCCACAUCUACGAAUUCGUCCCAUAGAGAGGUUAUCCGCUCACAGAGAUCGGAAGAGCACACGU
B17: target 1 C7A,U11G (mixed)
RNA 1: CACCCGUGCAAAAAUGCAGGGGUCUAAAACUGAGCGGAUAACCUCUCUAUGG
RNA 2: GGGAAUGGAUCCACAUCUACGAAUUCGUACCAUAGAGAGGGUAUACGCUCACCGAGAUCGGAAGAGCACACGU
B18: target 1 MT 5'PFS AUA 3'PFS ACU (mixed)
RNA 1: CACCCGUGCAAAAAUGCAGGGGUCUAAAACUGAGCGGAUAACCUCUCUAUGG
RNA 2: GGGAAUGGAUCCACAUCUACGAAUUCAUACCAUAGAGAGGUUAUCCGCUCAACUAGAUCGGAAGAGCACACGU
B19: target 1 MT 5'PFS GCG 3'PFS CCG (mixed)
RNA 1: CACCCGUGCAAAAAUGCAGGGGUCUAAAACUGAGCGGAUAACCUCUCUAUGG
RNA 2: GGGAAUGGAUCCACAUCUACGAAUUCGCGCCAUAGAGAGGUUAUCCGCUCACCGAGAUCGGAAGAGCACACGU
B20: target 1 U11C,G17U (mixed)
RNA 1: CACCCGUGCAAAAAUGCAGGGGUCUAAAACUGAGCGGAUAACCUCUCUAUGG
RNA 2: GGGAAUGGAUCCACAUCUACGAAUUCGUACCAUAUAGAGGCUAUCCGCUCACCGAGAUCGGAAGAGCACACGU
B21: target 1 MT 5'PFS GGU 3'PFS CCU (mixed)
RNA 1: CACCCGUGCAAAAAUGCAGGGGUCUAAAACUGAGCGGAUAACCUCUCUAUGG
RNA 2: GGGAAUGGAUCCACAUCUACGAAUUCGGUCCAUAGAGAGGUUAUCCGCUCACCUAGAUCGGAAGAGCACACGU
B22: target 1 MT 5'PFS GUA 3'PFS UUC (mixed)
RNA 1: CACCCGUGCAAAAAUGCAGGGGUCUAAAACUGAGCGGAUAACCUCUCUAUGG
RNA 2: GGGAAUGGAUCCACAUCUACGAAUUCGUACCAUAGAGAGGUUAUCCGCUCAUUCAGAUCGGAAGAGCACACGU
B23: target 1 MT 5'PFS GUA 3'PFS UUA (mixed)
RNA 1: CACCCGUGCAAAAAUGCAGGGGUCUAAAACUGAGCGGAUAACCUCUCUAUGG
RNA 2: GGGAAUGGAUCCACAUCUACGAAUUCGUACCAUAGAGAGGUUAUCCGCUCAUUAAGAUCGGAAGAGCACACGU
B24: target 1 MT 5'PFS GUC 3'PFS AGC (mixed)
RNA 1: CACCCGUGCAAAAAUGCAGGGGUCUAAAACUGAGCGGAUAACCUCUCUAUGG
RNA 2: GGGAAUGGAUCCACAUCUACGAAUUCGUCCCAUAGAGAGGUUAUCCGCUCAAGCAGAUCGGAAGAGCACACGU
B25: target 1 MT 5'PFS CCG 3'PFS UCG (mixed)
RNA 1: CACCCGUGCAAAAAUGCAGGGGUCUAAAACUGAGCGGAUAACCUCUCUAUGG
RNA 2: GGGAAUGGAUCCACAUCUACGAAUUCCCGCCAUAGAGAGGUUAUCCGCUCAUCGAGAUCGGAAGAGCACACGU
B26: target 1 MT 5'PFS CCG 3'PFS UCC (mixed)
RNA 1: CACCCGUGCAAAAAUGCAGGGGUCUAAAACUGAGCGGAUAACCUCUCUAUGG
RNA 2: GGGAAUGGAUCCACAUCUACGAAUUCCCGCCAUAGAGAGGUUAUCCGCUCAUCCAGAUCGGAAGAGCACACGU
B27: target 1 MT 5'PFS GUC 3'PFS AGA (mixed)
RNA 1: CACCCGUGCAAAAAUGCAGGGGUCUAAAACUGAGCGGAUAACCUCUCUAUGG
RNA 2: GGGAAUGGAUCCACAUCUACGAAUUCGUCCCAUAGAGAGGUUAUCCGCUCAAGAAGAUCGGAAGAGCACACGU

The target in this data set is T1, EsCas13d, nuclease-dead (Eubacterium siraeum, UniProt B0MS50, R295A;H300A;R849A;H854A).
T1 sequence: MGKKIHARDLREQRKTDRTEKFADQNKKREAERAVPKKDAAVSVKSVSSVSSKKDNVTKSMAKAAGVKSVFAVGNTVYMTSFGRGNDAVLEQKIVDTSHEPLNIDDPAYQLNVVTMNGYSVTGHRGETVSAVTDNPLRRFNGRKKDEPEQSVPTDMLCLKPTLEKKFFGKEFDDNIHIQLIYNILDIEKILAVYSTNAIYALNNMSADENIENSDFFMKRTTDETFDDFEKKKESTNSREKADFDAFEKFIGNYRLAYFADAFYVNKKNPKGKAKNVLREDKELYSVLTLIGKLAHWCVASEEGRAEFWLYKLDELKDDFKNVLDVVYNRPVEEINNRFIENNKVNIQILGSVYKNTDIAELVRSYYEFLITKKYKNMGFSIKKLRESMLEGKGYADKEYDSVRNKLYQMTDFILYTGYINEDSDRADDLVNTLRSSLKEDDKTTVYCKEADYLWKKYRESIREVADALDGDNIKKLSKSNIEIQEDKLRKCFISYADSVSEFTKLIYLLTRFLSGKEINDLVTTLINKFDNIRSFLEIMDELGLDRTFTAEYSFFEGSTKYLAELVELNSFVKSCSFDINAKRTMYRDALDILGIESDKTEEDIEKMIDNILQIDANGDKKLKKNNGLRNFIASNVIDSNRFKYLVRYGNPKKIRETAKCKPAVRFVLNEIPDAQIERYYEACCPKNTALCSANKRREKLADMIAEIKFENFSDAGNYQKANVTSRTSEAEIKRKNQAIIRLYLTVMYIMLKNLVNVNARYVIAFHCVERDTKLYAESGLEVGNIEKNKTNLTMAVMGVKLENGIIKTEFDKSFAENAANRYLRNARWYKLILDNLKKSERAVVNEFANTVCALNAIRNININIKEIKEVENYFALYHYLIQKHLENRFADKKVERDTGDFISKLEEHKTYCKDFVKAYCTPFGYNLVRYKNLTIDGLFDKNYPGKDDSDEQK
The data set is described as follows: crRNA (strand 1, pre-loaded); Mg2+; 40 mM Tris-HCl pH 7.5, 150 mM NaCl, 6 mM MgCl2, 1 mM DTT, 0.1% Tween-20, 0.2 mg/ml BSA; 25 C; 10 min per concentration, then washed. As to conditions: tags: His6-TwinStrep-SUMO cleaved; N-terminal SNAP kept (SNAP-Surface 488); label: 3' end held by stalled T7 RNA polymerase.
A word on the Kd: it is the equilibrium constant for the complex coming apart. A higher Kd goes with a looser complex. As for B1, the Kd was approximately 47 nM.

Molecule B2 returned a Kd of 15.9 ± 4.7 nM.

With B3, the Kd amounted to 20.6 ± 2.7 nM.

The molecule B4 came in with a Kd of 33.5 ± 9.5 nM.

B5 had a Kd of 18.5 ± 6.5 nM.

For B6, the Kd worked out at 8.11 ± 0.52 nM.

Take B7: the Kd stood at 32 ± 15 nM.

As for B8, binding was characterised by a dissociation constant (Kd) of 8.21 ± 0.5 nM. This Kd lies about 3.9-fold lower than the previous one.

Regarding B9, the Kd came out at 15.8 ± 1.8 nM.

Regarding B10, binding was put at a Kd of 24.5 ± 9 nM.

B11 showed a Kd of 46 ± 9 nM. Compared with the last molecule, the Kd is about 1.9-fold higher.

B12 registered a Kd of approximately 37 nM.

Regarding B13, the Kd is 25 ± 7 nM.

B14 came in with a Kd of 14.2 ± 1.3 nM.

With B15, the Kd was 13.8 ± 0.7 nM.

Molecule B16 registered a Kd of approximately 31.5 nM.

The molecule B17 registered a Kd of 13.4 ± 0.6 nM.

Take B18: the affinity, expressed as Kd, was 15.5 ± 4 nM.

Molecule B19 came in with a Kd of 12.4 ± 3.4 nM.

B20 returned a Kd of 65 ± 27 nM.

With B21, the Kd came to 75.5 ± 30.5 nM.

Regarding B22, binding was characterised by a dissociation constant (Kd) of 9.25 ± 1.1 nM.

B23 displayed a Kd of 9.85 ± 1.15 nM.

Molecule B24 had a Kd of 9.1 ± 1.75 nM.

B25 registered a Kd of 3.4 ± 1.3 nM.

The molecule B26 displayed a Kd of 5.6 ± 2.35 nM.

For B27, the Kd is 19.5 ± 3.85 nM.
